This passage reports OD450nm and Ratio OD(Variant)/OD(WT) results from US20230365662A1.

B1: KB001 parental mouse Fab VH variant S65Y (Fab, V domains shown)
VH: EVQLKQSGPGLVAPSQSLSITCTVSGFSLSIYSVHWVRQPPGKGLEWLGMIWGGGSSDYNSALKYRLSISKDNSKSQVFLKMNSLQTDDTAMYYCARNGNFYAMDYWGQGTSVTVSS
VL: QIVLTQSPAIMSASLGERVTMTCTASSSVSSSFLHWYQQKPGSSPQLWIYSTSNLASGVPARFSGSGSGTSYSLTISSMEAEDAATYYCHQYHHSPYIYTFGGGTKLEIK
B2: KB001 parental mouse Fab VH variant A103K (Fab, V domains shown)
VH: B1 VH with Y65S, A103K
VL: B1 VL
B3: KB001 parental mouse Fab VH variant N100K (Fab, V domains shown)
VH: B1 VH with Y65S, N100K
VL: B1 VL
B4: KB001 parental mouse Fab VH variant N100P (Fab, V domains shown)
VH: B1 VH with Y65S, N100P
VL: B1 VL
B5: KB001 parental mouse Fab VH variant S65L (Fab, V domains shown)
VH: B1 VH with Y65L
VL: B1 VL
B6: KB001 parental mouse Fab VH variant N100S (Fab, V domains shown)
VH: B1 VH with Y65S, N100S
VL: B1 VL
B7: KB001 parental mouse Fab VH variant N100F (Fab, V domains shown)
VH: B1 VH with Y65S, N100F
VL: B1 VL
B8: KB001 parental mouse Fab VH variant N100T (Fab, V domains shown)
VH: B1 VH with Y65S, N100T
VL: B1 VL
B9: KB001 parental mouse Fab VH variant S65T (Fab, V domains shown)
VH: B1 VH with Y65T
VL: B1 VL
B10: KB001 parental mouse Fab VH variant G99A (Fab, V domains shown)
VH: B1 VH with Y65S, G99A
VL: B1 VL
B11: KB001 parental mouse Fab VH variant G99S (Fab, V domains shown)
VH: B1 VH with Y65S, G99S
VL: B1 VL
B12: KB001 parental mouse Fab VH variant N100I (Fab, V domains shown)
VH: B1 VH with Y65S, N100I
VL: B1 VL
B13: KB001 parental mouse Fab VH variant N100A (Fab, V domains shown)
VH: B1 VH with Y65S, N100A
VL: B1 VL
B14: KB001 parental mouse Fab VH variant F101S (Fab, V domains shown)
VH: B1 VH with Y65S, F101S
VL: B1 VL
B15: KB001 parental mouse Fab VH variant F101W (Fab, V domains shown)
VH: B1 VH with Y65S, F101W
VL: B1 VL
B16: KB001 parental mouse Fab VH variant G99C (Fab, V domains shown)
VH: B1 VH with Y65S, G99C
VL: B1 VL
B17: KB001 parental mouse Fab VH variant A103L (Fab, V domains shown)
VH: B1 VH with Y65S, A103L
VL: B1 VL
B18: KB001 parental mouse Fab VH variant N100R (Fab, V domains shown)
VH: B1 VH with Y65S, N100R
VL: B1 VL
B19: KB001 parental mouse Fab VH variant S65G (Fab, V domains shown)
VH: B1 VH with Y65G
VL: B1 VL
B20: KB001 parental mouse Fab VH variant A103I (Fab, V domains shown)
VH: B1 VH with Y65S, A103I
VL: B1 VL
B21: KB001 parental mouse Fab VH variant N100G (Fab, V domains shown)
VH: B1 VH with Y65S, N100G
VL: B1 VL
B22: KB001 parental mouse Fab VH variant S65P (Fab, V domains shown)
VH: B1 VH with Y65P
VL: B1 VL
B23: KB001 parental mouse Fab VH variant F101M (Fab, V domains shown)
VH: B1 VH with Y65S, F101M
VL: B1 VL
B24: KB001 parental mouse Fab VH variant G99Y (Fab, V domains shown)
VH: B1 VH with Y65S, G99Y
VL: B1 VL
B25: KB001 parental mouse Fab VH variant N100C (Fab, V domains shown)
VH: B1 VH with Y65S, N100C
VL: B1 VL
B26: KB001 parental mouse Fab VH variant G99N (Fab, V domains shown)
VH: B1 VH with Y65S, G99N
VL: B1 VL
B27: KB001 parental mouse Fab VH variant F101L (Fab, V domains shown)
VH: B1 VH with Y65S, F101L
VL: B1 VL
B28: KB001 parental mouse Fab VH variant N100Q (Fab, V domains shown)
VH: B1 VH with Y65S, N100Q
VL: B1 VL
B29: KB001 parental mouse Fab VH variant A103V (Fab, V domains shown)
VH: B1 VH with Y65S, A103V
VL: B1 VL
B30: KB001 parental mouse Fab VH variant A103M (Fab, V domains shown)
VH: B1 VH with Y65S, A103M
VL: B1 VL
B31: KB001 parental mouse Fab VH variant N100Y (Fab, V domains shown)
VH: B1 VH with Y65S, N100Y
VL: B1 VL
B32: KB001 parental mouse Fab VH variant S65F (Fab, V domains shown)
VH: B1 VH with Y65F
VL: B1 VL
B33: KB001 parental mouse Fab VH variant S65R (Fab, V domains shown)
VH: B1 VH with Y65R
VL: B1 VL
B34: KB001 parental mouse Fab VH variant A103G (Fab, V domains shown)
VH: B1 VH with Y65S, A103G
VL: B1 VL
B35: KB001 parental mouse Fab VH variant N100E (Fab, V domains shown)
VH: B1 VH with Y65S, N100E
VL: B1 VL
B36: KB001 parental mouse Fab VH variant N100L (Fab, V domains shown)
VH: B1 VH with Y65S, N100L
VL: B1 VL
B37: KB001 parental mouse Fab VH variant G99F (Fab, V domains shown)
VH: B1 VH with Y65S, G99F
VL: B1 VL

Where a chain is given by its changes, count along the chain named. Names may count otherwise. “And” between values parts separate entries of the source, which are not always exact repeats. Equal values may be shown once.

The experiment deals with HRgpA-6H (Porphyromonas gingivalis) (UniProt P28784). Nature of the experiment: ELISA, Fab FASEBA supernatant on coated HRgpA-6H (0.0625 ug/ml). (In an ELISA, binding on a coated surface is turned into a signal by an enzyme label.)
Sequence of UniProt P28784 (P28784 228-991 limits assumed): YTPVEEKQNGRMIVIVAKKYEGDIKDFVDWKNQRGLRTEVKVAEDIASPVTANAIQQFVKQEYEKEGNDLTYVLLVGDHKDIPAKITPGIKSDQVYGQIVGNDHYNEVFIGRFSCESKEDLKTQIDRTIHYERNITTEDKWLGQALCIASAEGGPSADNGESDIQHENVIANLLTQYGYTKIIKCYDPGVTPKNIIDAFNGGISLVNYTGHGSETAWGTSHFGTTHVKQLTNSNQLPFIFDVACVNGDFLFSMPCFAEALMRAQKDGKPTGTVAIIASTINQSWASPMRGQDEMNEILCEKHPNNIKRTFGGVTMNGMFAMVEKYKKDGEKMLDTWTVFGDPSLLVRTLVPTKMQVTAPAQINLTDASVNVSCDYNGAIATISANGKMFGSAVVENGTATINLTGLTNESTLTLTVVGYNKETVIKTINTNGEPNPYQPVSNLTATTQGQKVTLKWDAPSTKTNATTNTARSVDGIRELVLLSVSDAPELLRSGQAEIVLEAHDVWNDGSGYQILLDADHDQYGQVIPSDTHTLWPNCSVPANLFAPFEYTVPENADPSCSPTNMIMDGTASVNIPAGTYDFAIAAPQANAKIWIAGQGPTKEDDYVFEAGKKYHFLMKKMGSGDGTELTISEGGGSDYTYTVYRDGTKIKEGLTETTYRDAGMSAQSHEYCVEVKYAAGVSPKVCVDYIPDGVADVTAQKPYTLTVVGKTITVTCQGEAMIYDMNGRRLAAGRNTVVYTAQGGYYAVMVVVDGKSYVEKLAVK
In the case of B1, the OD450nm amounted to 0.724 and the Ratio OD(Variant)/OD(WT) stood at 0.875.

With B2, the OD450nm came out at 0.723 and the Ratio OD(Variant)/OD(WT) was 0.839.

B3: the OD450nm was 0.801 and 0.791; the Ratio OD(Variant)/OD(WT) was 0.946 and 0.934.

On to B4, for which the OD450nm amounted to 0.757 and the Ratio OD(Variant)/OD(WT) amounted to 0.894.

As to B5, the OD450nm worked out at 0.728 and the Ratio OD(Variant)/OD(WT) came to 0.88.

B6: the OD450nm is 0.799 and 0.844 and 0.805; the Ratio OD(Variant)/OD(WT) is 0.943 and 0.996 and 0.95.

Consider B7, for which the OD450nm came out at 0.779 and the Ratio OD(Variant)/OD(WT) came to 0.92.

Turning to B8, the OD450nm was 0.756 and 0.783; the Ratio OD(Variant)/OD(WT) is 0.893 and 0.924.

As for B9, the OD450nm was 0.759 and the Ratio OD(Variant)/OD(WT) was 0.918.

Regarding B10, the OD450nm was determined as 0.74 and the Ratio OD(Variant)/OD(WT) amounted to 0.928.

On to B11, for which the OD450nm was 0.769 and 0.739 and 0.77; the Ratio OD(Variant)/OD(WT) was 0.965 and 0.927 and 0.966.

Regarding B12, the OD450nm is 0.796 and 0.833; the Ratio OD(Variant)/OD(WT) was 0.94 and 0.983.

On to B13, for which the OD450nm was 0.809 and the Ratio OD(Variant)/OD(WT) is 0.955.

Regarding B14, the OD450nm was 0.678 and 0.725; the Ratio OD(Variant)/OD(WT) was 0.8 and 0.856.

In the case of B15, the OD450nm is 0.825 and 0.828 and 0.802; the Ratio OD(Variant)/OD(WT) was 0.974 and 0.978 and 0.947.

Consider B16, for which the OD450nm was 0.776 and the Ratio OD(Variant)/OD(WT) was 0.974.

On to B17, for which the OD450nm worked out at 0.783 and the Ratio OD(Variant)/OD(WT) is 0.908.

Regarding B18, the OD450nm is 0.788 and the Ratio OD(Variant)/OD(WT) worked out at 0.93.

With B19, the OD450nm was 0.825 and the Ratio OD(Variant)/OD(WT) came to 0.998.

For the molecule B20, the OD450nm is 0.695 and 0.693; the Ratio OD(Variant)/OD(WT) is 0.806 and 0.804.

Take B21: the OD450nm was 0.769 and 0.814; the Ratio OD(Variant)/OD(WT) was 0.908 and 0.961.

As for B22, the OD450nm came to 0.814 and the Ratio OD(Variant)/OD(WT) came to 0.984.

Consider B23, for which the OD450nm was found to be 0.755 and the Ratio OD(Variant)/OD(WT) came out at 0.891.

As to B24, the OD450nm amounted to 0.769 and the Ratio OD(Variant)/OD(WT) was determined as 0.965.

Regarding B25, the OD450nm came out at 0.688 and the Ratio OD(Variant)/OD(WT) was determined as 0.812.

As for B26, the OD450nm is 0.639 and 0.698; the Ratio OD(Variant)/OD(WT) was 0.802 and 0.876.

For B27, the OD450nm came to 0.681 and the Ratio OD(Variant)/OD(WT) was 0.804.

Regarding B28, the OD450nm came out at 0.846 and the Ratio OD(Variant)/OD(WT) was 0.999.

In the case of B29, the OD450nm was 0.849 and 0.807; the Ratio OD(Variant)/OD(WT) is 0.985 and 0.936.

For the molecule B30, the OD450nm came out at 0.811 and the Ratio OD(Variant)/OD(WT) stood at 0.941.

In the case of B31, the OD450nm is 0.757 and 0.784 and 0.699; the Ratio OD(Variant)/OD(WT) was 0.894 and 0.926 and 0.825.

Consider B32, for which the OD450nm was 0.74 and the Ratio OD(Variant)/OD(WT) is 0.895.

Take B33: the OD450nm was 0.794 and the Ratio OD(Variant)/OD(WT) turned out to be 0.96.

In the case of B34, the OD450nm is 0.815 and 0.804 and 0.755; the Ratio OD(Variant)/OD(WT) is 0.945 and 0.933 and 0.876.

As for B35, the OD450nm is 0.823 and the Ratio OD(Variant)/OD(WT) worked out at 0.972.

B36: the OD450nm is 0.817 and 0.736 and 0.789; the Ratio OD(Variant)/OD(WT) is 0.965 and 0.869 and 0.932.

Consider B37, for which the OD450nm was found to be 0.771 and the Ratio OD(Variant)/OD(WT) worked out at 0.967.
